Measured values from patent US20190077860A1 (EISAI R AND D MANAGEMENT, published 2019).
Residue numbers refer to the chain shown, from its start.

B1: humanized antibody No. 160 (antibody, human IgG2)
heavy: QIQLVQSGSELKKPGASVKVSCKASGYTFTDYSMHWVRQAPGQGLKWMGWINTETGEPTYADDFKGRFVFSLDTSVSTAYLQISSLKAEDTAVYYCARIPLYYYGSRYWYFDVWGQGTTVTVSSASTKGPSVFPLAPSSRSTSESTAALGCLVKDYFPEPVTVSWNSGALTSGVHTFPAVLQSSGLYSLSSVVTVPSSNFGTQTYTCNVDHKPSNTKVDKTVERKSCVECPPCPAPPAAAPSVFLFPPKPKDTLMISRTPEVTCVVVDVSHEDPEVQFNWYVDGVEVHNAKTKPREEQFNSTFRVVSVLTVVHQDWLNGKEYKCKVSNKGLPAPIEKTISKTKGQPREPQVYTLPPSREEMTKNQVSLTCLVKGFYPSDIAVEWESNGQPENNYKTTPPMLDSDGSFFLYSKLTVDKSRWQQGNVFSCSVMHEALHNHYTQKSLSLSPG
light: DIQMTQSPSSLSASVGDRVTITCRASENIYRNLAWYQQKPGKAPQLLLYAATNLADGVPSRFSGSGSGTDYTLTISSLQPEDFATYYCQHFWGTPWTFGQGTKVEIKRTVAAPSVFIFPPSDEQLKSGTASVVCLLNNFYPREAKVQWKVDNALQSGNSQESVTEQDSKDSTYSLSSTLTLSKADYEKHKVYACEVTHQGLSSPVTKSFNRGEC
notes: human Ig kappa; also called L1-6/HK4
B2: humanized antibody No. 159 (antibody, human IgG2)
heavy: B1 heavy with I2V
light: B1 light
notes: human Ig kappa; also called L1-6/HK2
B3: humanized antibody No. 154 (antibody, human IgG2)
heavy: B1 heavy with I2V, K46E
light: B1 light with Q45K, P80S
notes: human Ig kappa; also called L1-5/HK1
B4: humanized antibody No. 152 (antibody, human IgG2)
heavy: B1 heavy with I2V, K46E, D62Q, D63G, K65T
light: B1 light with Q45K, P80S
notes: human Ig kappa; also called L1-5/HA1
B5: humanized antibody No. 157 (antibody, human IgG2)
heavy: B1 heavy with I2V, K46E, D62Q, D63G, K65T
light: B1 light
notes: human Ig kappa; also called L1-6/HA1
B6: humanized antibody No. 155 (antibody, human IgG2)
heavy: B1 heavy
light: B1 light with Q45K, P80S
notes: human Ig kappa; also called L1-5/HK4
B7: humanized antibody No. 158 (antibody, human IgG2)
heavy: B1 heavy with I2V, D62Q, D63G, K65T
light: B1 light
notes: human Ig kappa; also called L1-6/HA2

Columns and labels:
Experiment in all cases: ELISA
[1] = molecular target: T1, human EphA8 extracellular region-SEAP-His protein (human, UniProt P29322 28-542)
T1 construct: extracellular domain; also called hEphA8-SEAP-His
T1 sequence (looked up): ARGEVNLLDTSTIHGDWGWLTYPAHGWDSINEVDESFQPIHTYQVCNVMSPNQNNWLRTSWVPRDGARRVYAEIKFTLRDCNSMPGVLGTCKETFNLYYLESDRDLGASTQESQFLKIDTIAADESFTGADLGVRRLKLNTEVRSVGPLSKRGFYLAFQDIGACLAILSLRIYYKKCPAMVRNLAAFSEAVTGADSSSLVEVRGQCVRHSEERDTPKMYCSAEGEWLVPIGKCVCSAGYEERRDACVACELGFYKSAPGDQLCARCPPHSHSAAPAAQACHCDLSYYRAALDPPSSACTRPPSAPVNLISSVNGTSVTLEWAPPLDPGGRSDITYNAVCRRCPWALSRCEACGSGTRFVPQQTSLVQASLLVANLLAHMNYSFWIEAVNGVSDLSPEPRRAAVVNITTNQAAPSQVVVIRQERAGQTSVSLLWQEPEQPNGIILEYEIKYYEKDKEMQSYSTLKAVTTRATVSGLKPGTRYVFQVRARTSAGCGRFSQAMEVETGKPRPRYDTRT
Protocol: (§1) Each well of a 96-well plate (Nunc) was coated with a rabbit anti-6-His antibody (Bethyl Laboratories). Each well was […] After washing with 0.05% Tween 20/PBS (Nacalai Tesque) three times, the SEAP-His protein of human EphA1, EphA2, EphA3, EphA4, EphA5, EphA6, EphA7, EphA8, EphA10, EphB1, EphB2, EphB3, EphB4, or EphB6 was added (final concentration: 1 nM) to each well and incubated at room temperature for 1 hour. After washing three times, the humanized antibody was added to each well and incubated at room temperature for 1 hour. After washing three times, a horseradish peroxidase-labeled donkey […] antibody (Jackson ImmunoResearch Laboratories) was added thereto and incubated at room temperature for 1 hour. After washing three times, TMB Microwell Peroxidase Substrate System (Kirkegaard & Perry Laboratories (KPL)) was added to each well. After confirmation of moderate color development, an equal amount of a reaction stopping solution (1N H₂SO₄, Wako Pure Chemical Industries) was added to each well. The absorbance at 450 nm was read using a microplate reader (Thermo Fisher Scientific).

[2] = molecular target: T2, human EphA1 extracellular region-SEAP-His protein (human, UniProt P21709 26-547)
T2 construct: extracellular domain; also called hEphA1-SEAP-His
T2 sequence (looked up): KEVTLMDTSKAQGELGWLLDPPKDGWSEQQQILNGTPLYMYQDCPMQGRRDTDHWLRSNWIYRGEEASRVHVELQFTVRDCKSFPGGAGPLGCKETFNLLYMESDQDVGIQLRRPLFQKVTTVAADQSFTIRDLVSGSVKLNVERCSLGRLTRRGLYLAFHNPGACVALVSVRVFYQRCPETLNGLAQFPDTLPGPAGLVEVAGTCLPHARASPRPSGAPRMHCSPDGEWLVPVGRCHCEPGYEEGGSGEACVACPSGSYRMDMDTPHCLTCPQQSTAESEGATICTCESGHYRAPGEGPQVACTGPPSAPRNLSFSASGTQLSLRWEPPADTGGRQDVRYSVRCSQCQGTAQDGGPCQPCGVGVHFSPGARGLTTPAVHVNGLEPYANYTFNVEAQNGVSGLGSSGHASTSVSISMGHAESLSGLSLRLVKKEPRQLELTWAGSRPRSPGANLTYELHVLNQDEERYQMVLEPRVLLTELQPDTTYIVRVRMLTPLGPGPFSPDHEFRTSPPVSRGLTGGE
Protocol: as §1

[3] = molecular target: T3, human EphB6 extracellular region-SEAP-His protein (human, UniProt O15197 32-594)
T3 construct: extracellular domain; also called hEphB6-SEAP-His
T3 sequence (looked up): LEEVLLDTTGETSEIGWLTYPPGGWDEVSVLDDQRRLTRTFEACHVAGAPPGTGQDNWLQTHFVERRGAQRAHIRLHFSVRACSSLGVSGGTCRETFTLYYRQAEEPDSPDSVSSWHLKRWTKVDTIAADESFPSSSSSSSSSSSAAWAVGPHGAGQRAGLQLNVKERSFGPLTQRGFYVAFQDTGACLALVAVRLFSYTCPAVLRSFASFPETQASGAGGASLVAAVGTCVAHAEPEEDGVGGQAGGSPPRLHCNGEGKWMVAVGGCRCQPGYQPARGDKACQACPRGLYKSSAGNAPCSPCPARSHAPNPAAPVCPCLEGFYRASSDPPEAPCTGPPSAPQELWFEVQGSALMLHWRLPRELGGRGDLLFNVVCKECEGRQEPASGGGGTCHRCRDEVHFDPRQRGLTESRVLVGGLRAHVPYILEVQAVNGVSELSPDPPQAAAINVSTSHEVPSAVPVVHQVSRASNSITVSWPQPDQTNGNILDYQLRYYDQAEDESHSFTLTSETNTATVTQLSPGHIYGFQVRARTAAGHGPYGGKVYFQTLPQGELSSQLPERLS
Protocol: as §1

[4] = molecular target: T4, human EphA2 extracellular region-SEAP-His protein (human, UniProt P29317 24-537)
T4 construct: extracellular domain; also called hEphA2-SEAP-His
Protocol: as §1

[5] = molecular target: T5, human EphA5 extracellular region-SEAP-His protein (human, UniProt P54756 25-573)
T5 construct: extracellular domain; also called hEphA5-SEAP-His
Protocol: as §1

[6] = molecular target: T6, human EphA4 extracellular region-SEAP-His protein (human, UniProt P54764 20-547)
T6 construct: also called hEphA4-SEAP-His
Protocol: as §1

T5 sequence (P54756 25-573): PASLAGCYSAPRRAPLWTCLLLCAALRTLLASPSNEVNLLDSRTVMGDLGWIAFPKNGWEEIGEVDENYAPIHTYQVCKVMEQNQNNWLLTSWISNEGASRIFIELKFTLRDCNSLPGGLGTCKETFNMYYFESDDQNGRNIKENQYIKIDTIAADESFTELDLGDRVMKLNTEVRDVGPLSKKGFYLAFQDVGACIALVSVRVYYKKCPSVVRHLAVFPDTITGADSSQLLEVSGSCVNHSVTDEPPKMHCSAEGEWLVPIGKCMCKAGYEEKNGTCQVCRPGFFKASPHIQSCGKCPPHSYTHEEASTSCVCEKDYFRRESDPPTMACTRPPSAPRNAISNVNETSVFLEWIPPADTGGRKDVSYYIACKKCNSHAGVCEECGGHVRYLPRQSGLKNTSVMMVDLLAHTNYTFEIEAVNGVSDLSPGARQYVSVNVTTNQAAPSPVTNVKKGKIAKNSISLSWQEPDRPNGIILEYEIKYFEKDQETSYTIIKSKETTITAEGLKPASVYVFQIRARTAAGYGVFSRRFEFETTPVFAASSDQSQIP
T4 sequence (P29317 24-537): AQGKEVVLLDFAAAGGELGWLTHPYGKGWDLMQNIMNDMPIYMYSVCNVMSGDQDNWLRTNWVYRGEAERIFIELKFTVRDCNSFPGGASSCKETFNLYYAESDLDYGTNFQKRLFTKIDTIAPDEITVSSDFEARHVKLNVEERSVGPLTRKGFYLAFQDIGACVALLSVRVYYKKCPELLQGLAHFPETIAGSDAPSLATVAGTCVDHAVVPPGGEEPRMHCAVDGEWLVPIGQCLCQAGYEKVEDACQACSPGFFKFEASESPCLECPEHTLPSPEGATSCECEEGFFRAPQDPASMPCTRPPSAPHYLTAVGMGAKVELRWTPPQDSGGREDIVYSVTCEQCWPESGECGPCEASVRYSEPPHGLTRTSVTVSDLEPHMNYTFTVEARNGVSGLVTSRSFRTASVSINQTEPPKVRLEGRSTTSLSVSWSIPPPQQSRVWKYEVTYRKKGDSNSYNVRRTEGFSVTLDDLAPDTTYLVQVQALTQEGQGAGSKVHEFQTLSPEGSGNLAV
T6 sequence (P54764 20-547): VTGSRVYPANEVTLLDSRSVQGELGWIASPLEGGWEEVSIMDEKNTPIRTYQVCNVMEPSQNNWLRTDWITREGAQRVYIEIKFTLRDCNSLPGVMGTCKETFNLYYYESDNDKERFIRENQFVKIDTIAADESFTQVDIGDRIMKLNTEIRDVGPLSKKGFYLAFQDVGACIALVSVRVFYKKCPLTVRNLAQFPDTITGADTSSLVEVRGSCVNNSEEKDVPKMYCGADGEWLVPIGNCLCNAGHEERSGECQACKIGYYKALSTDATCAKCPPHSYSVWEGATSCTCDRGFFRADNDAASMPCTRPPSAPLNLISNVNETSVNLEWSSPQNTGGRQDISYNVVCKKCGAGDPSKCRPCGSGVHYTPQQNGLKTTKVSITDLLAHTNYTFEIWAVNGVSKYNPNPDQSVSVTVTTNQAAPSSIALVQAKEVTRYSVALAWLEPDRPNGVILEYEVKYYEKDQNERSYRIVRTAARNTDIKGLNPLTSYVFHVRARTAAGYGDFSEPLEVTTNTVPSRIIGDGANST

Row | Binder | A450 as % of hEphA4-SEAP-His [1] [%] | A450 as % of hEphA4-SEAP-His [2] [%] | A450 as % of hEphA4-SEAP-His [3] [%] | A450 as % of hEphA4-SEAP-His [4] [%] | A450 as % of hEphA4-SEAP-His [5] [%] | A450 as % of hEphA4-SEAP-His [6] [%]
1 | B1 | 5.4 | 6.5 | 6.2 | 6.1 | 6.5 | 100
2 | B2 | 5.5 | 5.4 | 5.5 | 5.4 | 5.5 | 100
3 | B3 | 5.5 | 6.4 | 6.4 | 6.2 | 6.3 | 100
4 | B4 | 6 | 5.8 | 5.9 | 5.8 | 5.8 | 100
5 | B5 | 6 | 6.2 | 6.3 | 6.3 | 6.1 | 100
6 | B6 | 5.5 | 5.5 | 5.6 | 5.5 | 5.6 | 100
7 | B7 | 6.4 | 6.5 | 6.3 | 6.7 | 6.7 | 100
